US12497461B2, “Human NTCP-binding antibody capable of inhibiting infection of hepatitis B virus (HBV) to human hepatocytes” (priority 2019, dated 2025)

Legend:
[1] = test system: HBV (Genotype C or Genotype D); test: Live HBV infection of normal human hepatocytes (PXB cells), HBs antigen; conditions: FIG. 2B, listed as N6HB426-20 antibody gene-derived recombinant antibody
[2] = molecular target: T1, epitope region-containing peptide fragment (AFPPEVIGPLFFFPLLYMIFQLGEG-biotin) (Homo sapiens, UniProt Q14973); test: Surface plasmon resonance assay (BIAcore) of antigen binding affinity
T1 sequence (Q14973 273-297 limits assumed): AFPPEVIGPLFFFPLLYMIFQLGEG
Method: In short, a carboxymethylated dextran biosensor chip (CM5, BIAcore Inc.) was activated by N-ethyl-N′-(3-dimethylaminopropyl)-carbodiimide hydrochloride (EDC) and N-hydroxysuccinimide (NHS) in accordance with the provider's instruction. An anti-mouse IgG antibody was diluted with 10 mM sodium acetate (pH5.2) up to 30 μg/ml. The dilution was injected at a flow rate of 5 to 10 μl/minute such that the reaction unit (RU) of the protein bound became 9,000 to 14,000 RU. In contrast, an anti-human IgG antibody was diluted with 10 mM sodium acetate (pH5.0) up to 25 μg/ml. The diluted antibody was injected at a flow rate of 5 to 10 μl/minute such that the reaction unit (RU) of the protein bound became 9,000 to 14,000 RU. After injection of each of the anti IgG antibodies, 1 M ethanolamine was injected in order to block unreactive groups. For kinetic measurement, N6HB426 antibody diluted with a running buffer (HBS-P: 10 mM HEPES pH7.5, 150 mM NaCl, 0.005% NP40) up to 10 μg/ml was immobilized onto CM5 chip via the anti-mouse IgG antibody, in advance. To the chip, a solution of an epitope region-containing peptide fragment ([…]-biotin: SEQ ID NO: 24) diluted with the running buffers at different concentrations was added at 25° C. at a flow rate of 10 μl/minute for 2 minutes. In contrast, the recombinant N6HB426 human chimeric IgG4 antibody was diluted with the running buffer up to 10 μg/ml and then was immobilized onto a sensor chip (CM5) via the anti-human IgG antibody in advance. To the chip, a solution of an epitope region-containing peptide fragment diluted with the running buffers at different concentrations was added at 25° C. at a flow rate of 10 μl/minute for 2 minutes.
The refractive index of the solution varied in correlation to the mass of a chip surface changed when a peptide fragment molecule bound to N6HB426 antibody on the sensor chip, was monitored in real-time. Using simple one-to-one Langmuir binding model (BIAcore Evaluation software version 3.1) by fitting sensor grams of antigen-antibody association and dissociation at the same time, association rate (Ka) and dissociation rate (Kd) were calculated. A Kd/Ka ratio was calculated to obtain an equilibrium dissociation constant (KD).

[3] = 25° C., antibody immobilized on CM5 chip

B1: Recombinant mouse IgG2a antibody: N6HB426 variable regions connected to a constant region of mouse IgG2a antibody (antibody)
heavy: QVQLQQSGAELVKPGASVKLSCKASDFTFTEYTIHWIKQMSGQGLEWIGWFYPGSGDIKYSEKFKDKATLTADKSSSTVYMELNRLTSEDSAVYFCARHMRDFRGFYYGRFYFDYWGQGTTLTVSSAKTTAPSVYPLAPVCGGTTGSSVTLGCLVKGYFPEPVTLTWNSGSLSSGVHTFPALLQSGLYTLSSSVTVTSNTWPSQTITCNVAHPASSTKVDKKIEPRGPTIKPCPPCKCPAPNLLGGPSVFIFPPKIKDVLMISLSPIVTCVVVDVSEDDPDVQISWFVNNVEVHTAQTQTHREDYNSTLRVVSALPIQHQDWMSGKEFKCKVNNKDLPAPIERTISKPKGSVRAPQVYVLPPPEEEMTKKQVTLTCMVTDFMPEDIYVEWTNNGKTELNYKNTEPVLDSDGSYFMYSKLRVEKKNWVERNSYSCSVVHEGLHNHHTTKSFSRTPGK
light: EIVLTQSPAIMSASPGEKVTITCRASSSVSSSYLHWYQQKSGVSPKLWIYSTSNLASGVPARFSGSGSGTSYSLTINSVEAEDAATYYCQQYSGYRWTFGGGTTLEIKRADAAPTVSIFPPSSEQLTSGGASVVCFLNNFYPKDINVKWKIDGSERQNGVLNSWTDQDSKDSTYSMSSTLTLTKDEYERHNSYTCEATHKTSTSPIVKSFNRNEC
inhibitory activity on infection of normal human hepatocytes with HBV [1]: comparable activity
Kd [2]: ~0.1 nM
Ka (1/Ms) association rate [2, 3]: 761.7 M⁻¹ s⁻¹
Kd (1/s) dissociation rate [2, 3]: 2.39e-07 s⁻¹
